In US8349320:

What was measured:
[1] = target: human HVEM mutant R113A expressed on cells (human) (UniProt Q92956); assay: flow cytometry saturation binding on 293T cells transfected with mutant HVEM
[2] = target: human HVEM mutant K64A expressed on cells (human) (UniProt Q92956); assay: as above
[3] = target: human HVEM mutant E65A expressed on cells (human) (UniProt Q92956); assay: as above
[4] = target: human HVEM mutant S58A expressed on cells (human) (UniProt Q92956); assay: as above
[5] = target: human HVEM mutant E76A expressed on cells (human) (UniProt Q92956); assay: as above
[6] = target: human HVEM mutant Y61F expressed on cells (human) (UniProt Q92956); assay: as above
[7] = target: human HVEM mutant Y47F expressed on cells (human) (UniProt Q92956); assay: as above
[8] = target: human HVEM mutant R62A expressed on cells (human) (UniProt Q92956); assay: as above
[9] = target: human HVEM (wild type) expressed on cells (human) (UniProt Q92956); assay: flow cytometry saturation binding on 293T cells transfected with wild type HVEM
Sequence of human HVEM (wild type) expressed on cells (human) (Q92956 39-283): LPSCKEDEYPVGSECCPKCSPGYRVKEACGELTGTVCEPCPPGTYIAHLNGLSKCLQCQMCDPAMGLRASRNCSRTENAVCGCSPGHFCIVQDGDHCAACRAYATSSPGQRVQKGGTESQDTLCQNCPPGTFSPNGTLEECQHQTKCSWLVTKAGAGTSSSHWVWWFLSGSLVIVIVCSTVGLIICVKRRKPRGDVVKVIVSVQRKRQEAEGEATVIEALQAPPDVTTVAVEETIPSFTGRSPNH

Sequence of human HVEM mutant R113A expressed on cells (human) (Q92956 39-283 R113A): as the sequence (Q92956 39-283) above, with R75A counted along it
Sequence of human HVEM mutant E76A expressed on cells (human) (Q92956 39-283 E76A): as the sequence (Q92956 39-283) above, with E38A counted along it
Sequence of human HVEM mutant S58A expressed on cells (human) (Q92956 39-283 S58A): as the sequence (Q92956 39-283) above, with S20A counted along it
Sequence of human HVEM mutant Y47F expressed on cells (human) (Q92956 39-283 Y47F): as the sequence (Q92956 39-283) above, with Y9F counted along it
Sequence of human HVEM mutant Y61F expressed on cells (human) (Q92956 39-283 Y61F): as the sequence (Q92956 39-283) above, with Y23F counted along it
Sequence of human HVEM mutant K64A expressed on cells (human) (Q92956 39-283 K64A): as the sequence (Q92956 39-283) above, with K26A counted along it
Sequence of human HVEM mutant E65A expressed on cells (human) (Q92956 39-283 E65A): as the sequence (Q92956 39-283) above, with E27A counted along it
Sequence of human HVEM mutant R62A expressed on cells (human) (Q92956 39-283 R62A): as the sequence (Q92956 39-283) above, with R24A counted along it

- Kd [1]: 18 nM
- Kd [2]: 14 nM
- Kd [3]: 18 nM
- Kd [4]: 19 nM
- Kd [5]: 22 nM
- Kd [6]: 17 nM
- Kd [7]: 14 nM
- Kd [8]: 17 nM
- Kd [9]: 13 nM
B1: recombinant soluble human LIGHT truncated at G66 (ligand, from a related filing)
chain: GEMVTRLPDGPAGSWEQLIQERRSHEVNPAAHLTGANSSLTGSGGPLLWETQLGLAFLRGLSYHDGALVVTKAGYYYIYSKVQLGGVGCPLGLASTITHGLYKRTPRYPEELELLVSQQSPCGRATSSSRVWWDSSFLGGVVHLEAGEEVVVRVLDERLVRLRDGTRSYFGAFMV
